# Reference: the DeepSol protein solubility set
# Assay: soluble on expression in E. coli; label from the status in PepcDB or PDB records
row,Sequence,soluble on expression in E. coli
1,MKVIKSNKVTNKFKVSILISTYNKEKFIENTLNNILAQTMNKNDFELIIVDDCSTDNTLDIISKKIESFSNYQFVQLDENSGTPAKPRNLSIDLSKGKYIMFVDGDDWLPSDALENLYTLLKSNKTDYATGLTKYVYSDRIARSGVALSKIAYNKIGLKNFRKSFYHLAPAGRMMKSSVIKKNNIRFPEMIFGEDLQFFAEVFFNTKNISTTQDVVYCANRYDENISLVKSEASTVLNRIKWQNEAYRYLTKKYKNNKIFANLLYRIINKDILEGKFYKKGFIKEIDTLLPVFQDILNTIDNDFNSLDYADDTLNQHALTLIKNGDKEEIIDFVNFYLKKDEKPLYLSNDKYYYVYKENKYKKRMHIILQKIIKKDENIFLKLYSKNSELKYLEIKNRKDPTNYTVLEIKKHLFKTGEYTVQFKANELSKGKLALTVLDKDLNGAAIKSGMQFDFYETVNGNLGYIKKLEHHHHHH,soluble
2,MKVRVKAPCTSANLGVGFDVFGLCLKEPYDVIEVEAIDDKEIIIEVDDKNIPTDPDKNVAGIVAKKMIDDFNIGKGVKITIKKGVKAGSGLGSSAASSAGTAYAINELFKLNLDKLKLVDYASYGELASSGAKHADNVAPAIFGGFTMVTNYEPLEVLHIPIDFKLDILIAIPNISINTKEAREILPKAVGLKDLVNNVGKACGMVYALYNKDKSLFGRYMMSDKVIEPVRGKLIPNYFKIKEEVKDKVYGITISGSGPSIIAFPKEEFIDEVENILRDYYENTIRTEVGKGVEVV,soluble
3,MKVVELKNVKKIYPDGTIALKGVSLSVEEGEFLGVMGPSGSGKSTLLHLIGGLDKPSEGIVKVFGKEINHLDEDELAEMRKRKIAYVFQFYYLLEDFSVLENLTLIGELAGIKNPKKKALELLDFLRLSHRINHKPYQLSGGEQQRVAIGRALMVEPKLILADEPTGNLDSKEGFRIFELFKELNEKGITFVVATHNDSLKPFFGRIINLRDGEIVTQR,soluble
4,MKVVGVTSCIAGLAHTPMAAKALEKAGVKLGHDVKIEQQGAMGTIDEITPAEVSAADVVIIAADKVIDGEDRFKGKPVVRVKIGQCVANGEAVLSKVVAAIEARKQKEAN,not soluble
5,MKWYTKYLQVYEKPFSEAPQEIVEEVRNKLKLLQSDNPLVTVSLIGYNEEKHLLASLWSLSEMKCKYPIEIIGTDNDSKDQTATIYEATGIPYVIEHQHSCGHARLCGLKRAKGKYHINIDSDTMYPPHYVETMVDALERPGIVAVSSLWSYIPDKEHSWVGLKIYEFIRDIHLWIQSIKRPELSVRGLVFAYRTDYARQVGIRTDIRRGEDGSLALRLKEYGNIYFIRKRKARAITGYGTISADGSLFNSFKVRAIYALKNIGRVFTRKKEYKDEDDNLIKSLEHHHHHH,soluble
6,MKYSEIFKKRLGCKNTDEVFNYLLSHMKETIKGWDFFVAWEKVMNKVGSVEVVLNILNYLVGKENVVEEFKMLLGRYPEIAEVLPALLALREKSIKVVEPLADNVFNYKEYVFRKKKKYNPEEIEMLAEFAEKTGLLAMFEKKNIKSVVDYAIGVEVGLDTNARKNRSGTAMEMITELFVKKICSMNNYRYLSQATSHKIKTSFGYNVSVDKSERSFDFAIDNGHKLYLVETNYYGGGGSKLKSVAGEFTTLFSFIKKETPEHGFIWITDGKGWETAKKPLRESFDKVDYVLNLDMVQKGILEDIILQGL,soluble
7,MLAIFQKAFAHPPEELNSPASHFSGKTPKLPGETLSDFLSHHQNNAFSMNFGDSAVLAYARQETSLRQRLFCGLDGIYCMFLGRLNNLCTLNRQYGLSGKNSNEAMFVIEAYRTLRDRGPYPADQVLRGLEGSFAFVVYDTQTSSVFSALSSDGGESLYWGISGDGSVVMSDDIQIIKQGCAKSFAPFPNGCMFHSETGLKSFDHPTNMMKAMPRIDSEGVLCGASFKVDACSKINSIPRRGSEANWALANSR,soluble
8,MLAKQRFVLDTTAFTDNQLRELLGDGDLNLSVDRMLDLIARSRIKLNISCHMPPITYKEFTDYMTRYDCPEETLIKAETWIVKKTPNRYDTQIPSQIFYEYVHDIRERMNKGLRISETLLWEAGIQSIIMASRDVKKTEIESEVLGKAIKDLRKKYRSALRKGTLDSAPDLDVLLLAKELGAGVVAADDGIRVWAERLGLRFLNATSFPKMLKEYLKYYE,not soluble
9,MLANQIKYVILHLTQSIIEYSMANLNCIKAVLAEKGIMSKWLAKTLKKDPATVSKWCNNHSQPDLYTLARIAEVLDVDIHKLICHTKEE,not soluble
10,MLARTIQRFSVVAKRGYAAAAPAANANPEELRLTFASPDTAVFSNAVVKQVDVPTLAGMVGVLANHVPTIGVLKPGVVSVTTNEGTVQRLFVSSGTLSVNIDGSCQVLAEEVLKVEEIDESAARAELDAAQRASGEGSEVARAEAQIRAEVAEALIKAATNQQ,not soluble
11,MLDKLDRLEEEYRELEALLSDPEVLKDKGRYQSLSRRYAEMGEVIGLIREYRKVLEDLEQAESLLDDPELKEMAKAEREALLARKEALEKELERHLLPKDPMDERDAIVEIRAGTGGEEAALFARDLFNMYLRFAEEMGFETEVLDSHPTDLGGFSKVVFEVRGPGAYGTFKYESGVHRVQRVPVTETQGRIHTSTATVAVLPKAEEEDFALNMDEIRIDVMRASGPGGQGVNTTDSAVRVVHLPTGIMVTCQDSRSQIKNREKALMILRSRLLEMKRAEEAERLRKTRLAQIGTGERSEKIRTYNFPQSRVTDHRIGFTTHDLEGVLSGHLTPILEALKRADQERQLAALAEG,soluble
12,MLDKTRLRIAMQKSGRLSDESQELLSRCGIKINLQQQRLIAFAENMPIDILRVRDDDIPGLVMDGVVDLGIIGENVLEEELLNRRAQGDDPRYFTLRRLDFGGCRLSLAAPLDAEYTGPQCLQDTRIATSYPHILKQYLDKQGVRFKSCLLNGSVEVAPRAGLADAICDLVSTGATLEANGLREVEVIYRSKACLIQRDGEMSVDKQQLIDRLMTRIQGVIQARESKYIMMHAPSERLDEIITLLPGAERPTILPLAGDKSRVAMHMVSSETLFWETMEKLKALGASSILVLPIEKMME,not soluble
13,MLDVQHSKFGFTKGCIIAVFLLSLSRTLNRGQLSLDRFKFWQPTSQLLALDMCLCDASALEHHHHHH,not soluble
14,MLEDLIGKAYLESAEDRRRGDRSEEVEAIRKYIRSARRTVVPNWNAEKVDAINDVLRSFNLREAEHLQFNTNWADLTRMPAVTKALMALDISGADLVIARGRLGVPGSGSLLVIMDSRGRLLSAAMSPPHVIHSMEVREAVRSEMTHALERIGFKR,soluble
15,MLEEFLPSLIAHTPRQSARLIVADNGSTDDSVEFLRRQYPQVELILFPENYGFAEGYNRAIAQTECDCVVLLNSDVEVSEGWLDAPLALLQERSDVAAVQPKIRALRDKHAFEYAGAAGGYVDRWGYPFCRGRIFDAVETDTGQYDDIAEVFWASGAALFIRRQVYMAVGGLDPRFFAHQEEIDLCWRLHSRGWR,not soluble
16,MLEEQLYLLACIFASRADTRNIKKLSTRLGSQSKYLEILCVLWPELDDPKNLLFLRELEEEVQSPEGEETTDEDVIVELLESDSSLIPLIESDTTTRSNRYHELQEFISKKLNNKTLENFEEWLRERILICNEMIPETPLLYSVLWETAKSKVLSTKFIGWVEGVLKPLDHLNKRLHLIFKINEWEKMPDSELFKIIFDGVEDMQGYIGIADVIEDELAPTLSYGKKWETFITEFFNKQQFSLKSDTNYQLFIKLYYSLEKGVKDNSEASRKLQSNVVDILFHNSENLFNLSSLTHKLDELWSILSGFPDEITIEEQKTITALEMKQFMEFFIKCSTKFSFKEIFAITQEEESAQLAHFSSLCHEEFNKANEISSFLQAMYETVLDISKDDKIFTRISMDEKLYSILEILLQMNEFAYIEAIIERFDYSNNTQIYELLVKFFWHFFNNASNGLRKEPEMKKASQTLQIIQKHMSQRAGTNLTKLEVLLEISDKLSHYSINLNKSHNGARDTAFKPSNILEYRDCPLDIISNLLELNPRLYKDLPTTKSLLFGIYDSLSINREGQTGKVEVDLMVLHIDYALVNLDFGTAYELGKQVFEICQEAGQHMMKALGDEHWLTFYQMGKFVDPNWVDNEIPTEIIVLQMSILGRLLEVCPLEEVEIVTSQWSTLELELSARDLVKDKYALDGQNDNKSKVGGIAREIFHNVTNF,soluble
17,MLEFSSEVSLLDSVKNILLEYGLRFQEPQIEKVDKYIEELLGVPYNLTAHRDLDSAVHKNVVEILLPLKEELKGTLLDVGSGNGVPGLILAIFFSKLKVVLLDSREKSVNFLRGVIEKLDLENVSVVKERAENFSKERREEFDYVTARAVARLNVLVEICTPALKTGGKLLFYKGPSYIEELKEAQRAMKELKVELEKVREYSLKTGERRALLILRKYESSPEKYPRRVGVPFKRPLL,soluble
18,MLENRLYKRSDFWKLFSRKYKLTKTIEHMMIDSIDIQENDRILEIGIGNGTVFKSITKKLKKGSLKSIDPSKRKVRQISRANRKNMGNGEVFHGYPEDIPFDDRTFNKVFSLHTVQSCTDIRLALREIYRVLQIDGRFYISIDTNTGEKEKTYIQLLKDQHFRDLSVIRRASCLCIVAVKLEHHHHHH,soluble
19,MLEQIRNTHPLVYQNFSALPDGEKHLRSILAIDRYWEKLDLPVPDVILAGSRLPVDACVEEACDILYAGGTLGLLHAAVMSKKYGRKVLVIDRAEPGRTTRDWNISRGELLRLADTGVFTSEELDSTIVRMYKTGWVEFHAPAERRKRLYMDEVLDCAVDADRLLGMACKKVLAGGGSKVLGHTSFVCCYQFPDHLVVQVEELSGKPRYFRTQVLVDAMGIVSPVAMQLNRGRPQTHVCPTVGTIASGFENADFEVGEILASTEDAEVSGKRGRQLIWEGFPAKGDEYITYLFFYDKVDSPNDKSLLGLFEAYFRKLPEYKKPGPNFTIHRPVFGIIPAYFHDGAGCTRVVSGERIALLGDAASLASPLTFCGFGSVVRNLDRMTSGLDRAMREGRLGAAELANISAYEPNVASMATLMKYMCYDPETDEPGFVNEMMNEVMIVLDELPQRYRQAMFRDEMKVEELVTVMLKVAWRYPKILKATWNKLGVGGSVGFVKNLAGWAISQNEKRGLEHHHHHH,not soluble
20,MLERIANIQKKLSKSIVERKINEVRKVAAVDVSYKEEKARAALVITTFPEGEVLKTKVIETTVSFPYIPTFFFLRETKPILIATKGETFDVLIVEGHGKAHPRGYGLASHIGVVLRKPTIGVAKRLLKNTPKDTYKKVGKVYVSVGNLITLEDATKIIRAILDESGYPKPLKLADKLSKGRIYEVKNTPSPNRSRKKRGNRGKDNNNSQGNLEHHHHHH,soluble
21,MLFATSGSGSMLQSWNLKTSKRTGSFDAKSSINAVAISPDGNTLATGIRDNAIKLWNINDGKLIHTLTGHQGQVRTVAFSPDGTLLASGSSDGTVKLWNATTGKEINTFTAHKEQVWSVAFNPDGKTLASTGQDGSVKIWGVSPQLEHHHHHH,soluble
22,MLFERIYEEGLAQASYFIGCQREGKAIVVDARRDIQTYLDLAAKNNMVISAVTETHIHADYLSGTRELAAATGAEIFLSGEGGADWQYGFTGTTLMHNSTIKLGNITITAKHTPGHTPEHLSFLITDGAVSKDPGFMLSGDFVFVGDVGRPDLLDEAAGGVDTRFAGAQQLFHSLKEQFLALPDHIQVYPGHGAGSPCGKALGAIPSTTVGYEKANAWWAPYLRSDDEAGFVEELLDGQPDAHAYFARMKKQNKQGPAVLSTLSPLVKLEAEEVVEKLGSEAVFVDTREQNQVHLGTVVGALNIPRGAKASNFAAWVIDPQKDAQDLIVLAPDANTAADFRDALLRVGIDTVRYFTNSIDGLPTFVPELISPAELAETNYDALIDIRAKSEFAAGSIPGAQQLSGGSAMWRLNELPAGGTLVTFCQSGARNTVVANALRRAGFTVIELEGSYAAWEKSAANPLEHHHHHH,soluble
